Measured values: the DeepSol protein solubility set

Assay: soluble on expression in E. coli; label from the status in PepcDB or PDB records

Sequence | soluble on expression in E. coli
MGSDKIHHHHHHMETIHFTKVHGSQNDFFLVDEEENHITEWSDEKRANFAIKLCDRKHSLGGADGILYVTKSSEVGPIGQMRVVNSDGSIASMCGNGLRTVARYLLEKHALTDAKVETMKAILDVKKATSLGFDIPTYQVEISPVKFAAETLPMHVGVEKLFNQVIPELDAELAFSAVSVPNPHLITFVDQAVLDSNKQEKLASYLNSENPYFPDGVNVSFVKRLSDDAIYVRTFERGVGFTNACGTAMSACSLIKKMLDNNILETPLNVYNDGGRVQVTAKKDAAGEISLQLIGNATFVSKGSVRYENDIVTELTNEATAEQAQYQALVKEVKEFLKTTE | not soluble
MGSDKIHHHHHHMETREQAKFFHLDEFSGLSLLQASYHRQRFARHVHETFCIGVIEEGVQRFYRTGGEHVAPKGDIILVNADEIHTGSPGVETGWAYRAIYPHPDLMLLLSRDLINANGTVPWFPEAVVHDPGLAEQFRLVFNLLTRDGDRLLKESLLLSSIASLVMRHGRTPAFARELPSVGQPLRIIKDLIASCPEEDYSLTQLAEMAHLSPWHFLRQFKKQVGLPPHAWLIQARLKRARQLLRRGLPIPVVAARCRFSDQSHFNRHFKSSFGITPGEFIRTLPSLSA | not soluble
MGSDKIHHHHHHMEYATLGNSGVEVSEVGFGAWVVGTDWWGDRTRDDAIDMVQHALDEDVTFFDTGDVYGHGDSEEIIGEALAEHRDEVTVSTKIGYDFYNNPQAGHGELPKKVTPEWVHTAVDRSLDRLGMDHVELLMLHNANVDEVDEDVLEALDELREEGKVDAIGWALGPSIGWLAEGDAAVANEFDALQTVFNLFEQTPGQHFIDTIREQNADTSVLARVPHSSGLLNEQVTPETELGKGDHRSHRPSEWYETGWEKVEEIRFLERDGARTMGQAAIQWLLYNDEVASVTPTFRTNADIDEWAGAPDTPPLSDEEYDRVQELYRDNFGIDRDDGMDALRSSVGGADLEETGMKSAGD | not soluble
MGSDKIHHHHHHMEYNDVVEAVISALKKAHTELPEDVVTAIKKAYDSEENDIAKRNLEAILKNIEAAKKLGVPMCQDTGIPVFFVEVGRELCLDFDLKEAIVEGVRKATAEIPLRPNAVHPITRENSGDNTGLGIPQINVELVKGDELRMVVMPKGAGSENVSALKMMLPTQVDKIKDFVVETVKNAGGKPCPPIFVGVGVGSTFDGAAKLAKKALLRNVLEMNDFELELLEAVNELGIGAMGLGGKYTALAVLVEFGHCHTASLPVAVNIQCWANRRAEVVLR | not soluble
MGSDKIHHHHHHMFAHCDVNAFYASCQTAFRPDLKGRPVVVLSNNDGCVIARSAEAKPFVKMGEPYFKQKAAFLRHGVVAFSSNYELYADMSSRVMATLEELTPRCEIYSIDEAFCDVSGVRHCRDLTDFGREIRATVLQRTHLTLGVGIAQTKTLAKLANHAAKQWPRQTGGVVDLSCPQRQRKLMALLPVSEVWGIGRRIGKKLEAMGIGTVLQLAESDIRFIRKHFTVVLERTVRELRGEPCLALEEFAPAKQEIICSRSFGDRITAYEDMRQAICSYAARAAEKLRGEHQYCRFVSAFVKTSPFALNEPYYGNSASLKLLTPTQDSRDIIAAATSCLDAIWKAGHRYQKAGVMLGDFYSQGVAQLNLFDELAPRHNSARLMQVLDQLNAKNGRGALYFAGQGIQQQWQMKREMLSPRYTTRYGDLLRVR | not soluble
MGSDKIHHHHHHMFCKVMKIGISCHHTYGGSGAVATELGKALAMKGHTVHFFSQAAPFRLGLYSRNIYCHEIEAMNYPLFETPYHSLALASKIAEVAFYEKLDVVHAHYAIPHAISAMLARQMLEEKCPAAECFRIVTTLHGTDITIVGADRSMSDAVRLAINKSDGVTAVSGYLRDETIRMFTPRKKIEVIHNFVDTAVFKRLPGRRDLLGLDGGKVVIHISNFRPVKRIMDVLAVFESIRREIPATLLLVGDGPDRSEAETWVRNYGIGDRVRFLGKLDDIVPLLSIADLMLMPSNVESFGLAALEAMACGVPVVVTDAGGFPEFVRQGVDGFRHPHGDIEGMSRSALSILRDDEVWQRFSGAAANQAGRFKTALKVKEYEAFYRRLIDEARERKAQ | not soluble
MGSDKIHHHHHHMFKRKVISFDIGSKNIKLVEGKCDGDKVIVTNMDMIETPKNSMNDGSIVDINLIAEAVRKLIDKVSTRTKNVVFTSQSTSIITRTVEIPWAKEKDMKSMIKYDIEQYLPIDLNEYIIKHKVIDEFQKEEVKMVRANVVVYPKKMAKAYWSLVEELELKPMALEVSLSAMEKILSSKDIITINEKDYQKEDTIAIVDIGSDEIEMNIIANGNLEFTRVLMGGGAYIDSSISNELSVDMDVAEEKKIIFGDLTLDNFSGEKQIVNEAMKNVIDRWNSEILRMLDYFKNKNKDKQIKKVYVHGGTSQIPGLCQYMKNSLGISVELIKNISTVSLDKKLEDKDITNYINAIGSIIM | not soluble
